In patent publication US20240400618A1 (GRIFOLS DIAGNOSTIC SOLUTIONS, published 2024):
Read-outs that look alike come from different tables or passages of the source.

B1: pxEBNCP15_hACE2-AAA-StrepTagII (receptor)
chain: QSTIEEQAKTFLDKFNHEAEDLFYQSSLASWNYNTNITEENVQNMNNAGDKWSAFLKEQSTLAQMYPLQEIQNLTVKLQLQALQQNGSSVLSEDKSKRLNTILNTMSTIYSTGKVCNPDAPAECLLLEPGLNEIMANSLDYNERLWAWESWRSEVGKALRPLYEEYVVLKNEMARANHYEDYGDYWRGDYEVNGVDGYDYSRGQLIEDVEHTFEEIKPLYEHLHAYVRAKLMNAYPSYISPIGCLPAHLLGDMWGRFWTNLYSLTVPFGQKPNIDVTDAMVDQAWDAQRIFKEAEKFFVSVGLPNMTQGFWENSMLTDPGNVQKAVCHPTAWDLGKGDFRILMCTKVTMDDFLTAHHEMGHIQYDMAYAAQPFLLRNGANEGFHEAVGEIMSLSAATPKHLKSIGLLSPDFQEDNETEINFLLKQALTIVGTLPFTYMLEKWRWMVFKGEIPKDQWMKKWWEMKREIVGVVEPVPHDETYCDPASLFHVSNDYSFIRYYTRTLYQFQFQEALCQAAKHEGPLHKCDISNSTEAGQKLFNMLRLGKSEPWTLALENVVGAKNMNVRPLLNYFEPLFTWLKDQNKNSFVGWSTDWSPYADGGSGWSHPQFEK
B2: pxEBNCP18_hACE2-AAA_p53 (receptor)
chain: QSTIEEQAKTFLDKFNHEAEDLFYQSSLASWNYNTNITEENVQNMNNAGDKWSAFLKEQSTLAQMYPLQEIQNLTVKLQLQALQQNGSSVLSEDKSKRLNTILNTMSTIYSTGKVCNPDAPAECLLLEPGLNEIMANSLDYNERLWAWESWRSEVGKALRPLYEEYVVLKNEMARANHYEDYGDYWRGDYEVNGVDGYDYSRGQLIEDVEHTFEEIKPLYEHLHAYVRAKLMNAYPSYISPIGCLPAHLLGDMWGRFWTNLYSLTVPFGQKPNIDVTDAMVDQAWDAQRIFKEAEKFFVSVGLPNMTQGFWENSMLTDPGNVQKAVCHPTAWDLGKGDFRILMCTKVTMDDFLTAHHEMGHIQYDMAYAAQPFLLRNGANEGFHEAVGEIMSLSAATPKHLKSIGLLSPDFQEDNETEINFLLKQALTIVGTLPFTYMLEKWRWMVFKGEIPKDQWMKKWWEMKREIVGVVEPVPHDETYCDPASLFHVSNDYSFIRYYTRTLYQFQFQEALCQAAKHEGPLHKCDISNSTEAGQKLFNMLRLGKSEPWTLALENVVGAKNMNVRPLLNYFEPLFTWLKDQNKNSFVGWSTDWSPYADGGGSKPLDGEYFTLQIRGRERFEMFRELNEALELKDAQAGKEPG
B3: pxEBNCP22_hACE2_3A-mIgG(h23) (Fc fusion)
chain: QSTIEEQAKTFLDKFNHEAEDLFYQSSLASWNYNTNITEENVQNMNNAGDKWSAFLKEQSTLAQMYPLQEIQNLTVKLQLQALQQNGSSVLSEDKSKRLNTILNTMSTIYSTGKVCNPDAPAECLLLEPGLNEIMANSLDYNERLWAWESWRSEVGKALRPLYEEYVVLKNEMARANHYEDYGDYWRGDYEVNGVDGYDYSRGQLIEDVEHTFEEIKPLYEHLHAYVRAKLMNAYPSYISPIGCLPAHLLGDMWGRFWTNLYSLTVPFGQKPNIDVTDAMVDQAWDAQRIFKEAEKFFVSVGLPNMTQGFWENSMLTDPGNVQKAVCHPTAWDLGKGDFRILMCTKVTMDDFLTAHHEMGHIQYDMAYAAQPFLLRNGANEGFHEAVGEIMSLSAATPKHLKSIGLLSPDFQEDNETEINFLLKQALTIVGTLPFTYMLEKWRWMVFKGEIPKDQWMKKWWEMKREIVGVVEPVPHDETYCDPASLFHVSNDYSFIRYYTRTLYQFQFQEALCQAAKHEGPLHKCDISNSTEAGQKLFNMLRLGKSEPWTLALENVVGAKNMNVRPLLNYFEPLFTWLKDQNKNSFVGWSTDWSPYADVPRDCGCKPCICTVPEVSSVFIFPPKPKDVLTITLTPKVTCVVVDISKDDPEVQFSWFVDDVEVHTAQTQPREEQFNSTFRSVSELPIMHQDWLNGKEFKCRVNSAAFPAPIEKTISKTKGRPKAPQVYTIPPPKEQMAKDKVSLTCMITDFFPEDITVEWQWNGQPAENYKNTQPIMNTNGSYFVYSKLNVQKSNWEAGNTFTCSVLHEGLHNHHTEKSLSHSPGK
B4: pxENBCP23_hACE2_3A-mIgG(23) (Fc fusion)
chain: QSTIEEQAKTFLDKFNHEAEDLFYQSSLASWNYNTNITEENVQNMNNAGDKWSAFLKEQSTLAQMYPLQEIQNLTVKLQLQALQQNGSSVLSEDKSKRLNTILNTMSTIYSTGKVCNPDAPAECLLLEPGLNEIMANSLDYNERLWAWESWRSEVGKALRPLYEEYVVLKNEMARANHYEDYGDYWRGDYEVNGVDGYDYSRGQLIEDVEHTFEEIKPLYEHLHAYVRAKLMNAYPSYISPIGCLPAHLLGDMWGRFWTNLYSLTVPFGQKPNIDVTDAMVDQAWDAQRIFKEAEKFFVSVGLPNMTQGFWENSMLTDPGNVQKAVCHPTAWDLGKGDFRILMCTKVTMDDFLTAHHEMGHIQYDMAYAAQPFLLRNGANEGFHEAVGEIMSLSAATPKHLKSIGLLSPDFQEDNETEINFLLKQALTIVGTLPFTYMLEKWRWMVFKGEIPKDQWMKKWWEMKREIVGVVEPVPHDETYCDPASLFHVSNDYSFIRYYTRTLYQFQFQEALCQAAKHEGPLHKCDISNSTEAGQKLFNMLRLGKSEPWTLALENVVGAKNMNVRPLLNYFEPLFTWLKDQNKNSFVGWSTDWSPYADVPEVSSVFIFPPKPKDVLTITLTPKVTCVVVDISKDDPEVQFSWFVDDVEVHTAQTQPREEQFNSTFRSVSELPIMHQDWLNGKEFKCRVNSAAFPAPIEKTISKTKGRPKAPQVYTIPPPKEQMAKDKVSLTCMITDFFPEDITVEWQWNGQPAENYKNTQPIMNTNGSYFVYSKLNVQKSNWEAGNTFTCSVLHEGLHNHHTEKSLSHSPGK
B5: pxEBNCP9_hIL2-hACE2(18-615) (receptor)
chain: QSTIEEQAKTFLDKFNHEAEDLFYQSSLASWNYNTNITEENVQNMNNAGDKWSAFLKEQSTLAQMYPLQEIQNLTVKLQLQALQQNGSSVLSEDKSKRLNTILNTMSTIYSTGKVCNPDAPAECLLLEPGLNEIMANSLDYNERLWAWESWRSEVGKALRPLYEEYVVLKNEMARANHYEDYGDYWRGDYEVNGVDGYDYSRGQLIEDVEHTFEEIKPLYEHLHAYVRAKLMNAYPSYISPIGCLPAHLLGDMWGRFWTNLYSLTVPFGQKPNIDVTDAMVDQAWDAQRIFKEAEKFFVSVGLPNMTQGFWENSMLTDPGNVQKAVCHPTAWDLGKGDFRILMCTKVTMDDFLTAHHEMGHIQYDMAYAAQPFLLRNGANEGFHEAVGEIMSLSAATPKHLKSIGLLSPDFQEDNETEINFLLKQALTIVGTLPFTYMLEKWRWMVFKGEIPKDQWMKKWWEMKREIVGVVEPVPHDETYCDPASLFHVSNDYSFIRYYTRTLYQFQFQEALCQAAKHEGPLHKCDISNSTEAGQKLFNMLRLGKSEPWTLALENVVGAKNMNVRPLLNYFEPLFTWLKDQNKNSFVGWSTDWSPYAD
B6: pxEBNCP10_tPa-hACE2(18-615)-AAA (receptor)
chain: B5 chain
B7: pxEBNCP19_mIgGHC_hACE2-3A (receptor)
chain: B5 chain
B8: pxEBNCP25_hACE2-AAA(1-615) (receptor)
chain: B5 chain

Tests used:
[1] = target: T1, pxENB9-FLS-CT-His (SARS-CoV-2, UniProt P0DTC2 15-1213)
[2] = target: T2, pxENB17-RBD-His (SARS-CoV-2, UniProt P0DTC2 319-541)
[3] = target: T2, pxENB17-RBD-His; assay: BLI (Octet), ACE2 construct loaded on SA tips by its tag, RBD as analyte
[4] = target: T2, pxENB17-RBD-His; remark: listed apart in the source
[5] = target: T1, pxENB9-FLS-CT-His; remark: listed apart in the source

Row | Binder | Kd [4] | Kd [5] | further results
1 | B1 | – | – | Kd [1]: 4710 nM; Kd [2]: 110 nM; Response, shift in Wavelength (nm) [3]: 0.0062 nm
2 | B2 | 0.001 nM | 0.001 nM | –
3 | B3 | 0.953 nM | 0.001 nM | –
4 | B4 | 24.5 nM | 38.7 nM | –
5 | B5 | 45.1 nM | – | –
6 | B6 | 60.8 nM | – | –
7 | B7 | 56.2 nM | – | –
8 | B8 | 73.3 nM | – | –
